From publication PMC4168798 (ACS Chemical Biology, 2014)

T1: Bcl-w (c-myc-tagged, without the C-terminal trans-membrane region) (human)
T1 chain: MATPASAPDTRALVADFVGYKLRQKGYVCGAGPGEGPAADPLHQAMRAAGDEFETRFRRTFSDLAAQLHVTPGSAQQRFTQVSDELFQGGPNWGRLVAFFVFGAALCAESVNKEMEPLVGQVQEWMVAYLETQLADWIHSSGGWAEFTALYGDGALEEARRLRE

T2: Bfl-1 (c-myc-tagged, without the C-terminal trans-membrane region) (human)
T2 sequence (Q16548 whole entry, looked up): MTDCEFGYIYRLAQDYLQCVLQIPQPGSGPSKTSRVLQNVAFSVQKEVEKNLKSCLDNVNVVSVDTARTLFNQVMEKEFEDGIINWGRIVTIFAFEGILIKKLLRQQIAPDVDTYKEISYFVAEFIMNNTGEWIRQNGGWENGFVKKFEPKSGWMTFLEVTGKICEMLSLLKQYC

B1: A12, N-terminal fluorescein (designed binder)
chain: {5/6‑fluorescein amidite}-RPEIWMGQGLRRLGDEINAYYAR-NH2
B2: MS1, N-terminal fluorescein (designed binder)
chain: {5/6‑fluorescein amidite}-RPEIWMTQGLRRLGDEINAYYAR-NH2
B3: Kaposi sarcoma herpesvirus Bcl-2 (domain or fragment)
chain: MDEDVLPGEVLAIEGIFMACGLNEPEYLYHPLLSPIKLYITGLMRDKESLFEAMLANVRFHSTTGINQLGLSMLQVSGDGNMNWGRALAILTFGSFVAQKLSNEPHLRDFALAVLPVYAYEAIGPQWFRARGGWRGLKAYCTQVLTRRRGRR
B4: MS3, N-terminal fluorescein (designed binder)
chain: {5/6‑fluorescein amidite}-RPEIWLTQHLQRLGDEINAYYAR-NH2
B5: B3, N-terminal fluorescein (designed binder)
chain: {5/6‑fluorescein amidite}-RPEIWLGQSLQRLGDEINAYYAR-NH2
B6: MS2, N-terminal fluorescein (designed binder)
chain: {5/6‑fluorescein amidite}-RPEIWLTQSLQRLGDEINAYYAR-NH2

Columns and labels:
Test in all cases: fluorescence polarisation
[1] = biological target: T1, Bcl-w (c-myc-tagged, without the …)
[2] = biological target: B3
[3] = biological target: Mcl-1 (c-myc-tagged, without the N-terminal domain and the C-terminal trans-membrane region) (human)
Sequence of Mcl-1 (c-myc-tagged, without the N-terminal domain and the C-terminal trans-membrane region) (human) (Q07820 whole entry, the tested form may be a part): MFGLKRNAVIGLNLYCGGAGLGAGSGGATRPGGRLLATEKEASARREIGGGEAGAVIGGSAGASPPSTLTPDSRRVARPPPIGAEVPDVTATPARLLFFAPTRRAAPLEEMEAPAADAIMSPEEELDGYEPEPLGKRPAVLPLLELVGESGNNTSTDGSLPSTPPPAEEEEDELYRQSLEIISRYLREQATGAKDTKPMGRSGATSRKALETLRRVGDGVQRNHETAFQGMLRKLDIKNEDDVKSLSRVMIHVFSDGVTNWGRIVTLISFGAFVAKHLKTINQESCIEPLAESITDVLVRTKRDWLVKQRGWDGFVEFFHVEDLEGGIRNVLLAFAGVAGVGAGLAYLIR

[4] = biological target: T2, Bfl-1 (c-myc-tagged, without the …)
[5] = biological target: Bcl-xL (c-myc-tagged, without the C-terminal trans-membrane region) (human)
Sequence of Bcl-xL (c-myc-tagged, without the C-terminal trans-membrane region) (human) (Q07817 whole entry): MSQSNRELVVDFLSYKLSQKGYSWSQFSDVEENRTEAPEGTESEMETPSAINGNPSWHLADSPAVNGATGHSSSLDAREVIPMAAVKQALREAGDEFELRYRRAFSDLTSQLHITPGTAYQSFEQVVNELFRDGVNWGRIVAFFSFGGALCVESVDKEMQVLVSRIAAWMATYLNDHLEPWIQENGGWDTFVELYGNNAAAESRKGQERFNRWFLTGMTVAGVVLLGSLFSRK

[6] = biological target: Bcl-2 (c-myc-tagged, without the C-terminal trans-membrane region) (human)
[7] = biological target: Bim_A2eT_I3dL, N-terminal fluorescein (N-terminal 5/6-fluorescein amidite; C-terminal amidation)

| Binder | Kd [1] | Kd [2] | Kd [3] | Kd [4] | Kd [5] | Kd [6] | Kd [7] |
| --- | --- | --- | --- | --- | --- | --- | --- |
| B1 | 210 nM | 4 nM | 2.4 nM | 22 nM | 9.8 nM | 42 nM |  |
| B2 |  | 2.9 nM |  |  |  |  |  |
| B3 |  |  |  |  |  |  | 1 nM |
| B4 | 340 nM |  |  | 790 nM |  | > 3000 nM |  |
| B5 | 16 nM | 1.43 nM | < 1 nM | 26 nM | 4.2 nM | 35 nM |  |
| B6 |  | < 1 nM |  |  |  |  |  |
